Measured values as given in PMC9745132, “Visualization of real-time receptor endocytosis in dopamine neurons enabled by NTSR1-Venus knock-in mice” (Frontiers in Cellular Neuroscience, 2022).
Where a name gives a salt, the structure may show the parent alone.

Key:
[1] = test system: hippocampal neurons from Ntsr1^WT/WT mice; assay: Intracellular calcium release (Fluo-4) in hippocampal neurons from Ntsr1^WT/WT mice; type: cell-based, mouse; details: 1 μM, maximal calcium response control
[2] = test system: hippocampal neurons from Ntsr1^Venus/Venus mice; assay: Intracellular calcium release (Fluo-4) in hippocampal neurons from Ntsr1^Venus/Venus mice; type: cell-based, mouse; details: 1 μM, maximal calcium response control
Experimental: To isolate hippocampal neurons, P0 pups were removed from the cage of NTSR1-Venus homozygous knock-in breeding pairs. Pups were decapitated, brains were removed dorsal side up into fresh ice-cold Hank’s balanced salt solution (HBSS; Gibco, Grand Island, NY, USA), meninges were removed, and hippocampi were dissected into Hibernate A (Gibco, Grand Island, NY, USA) on ice. Tissue dissociation was carried out with the Papain Dissociation System according to the manufacturer’s protocol (Worthington Biochemical Corporation, Lakewood, NJ, USA). Neurons were plated on Poly-D-Lysine (Sigma) coated surfaces at 100,000 cells per 12 mm coverslip (NeuVitro, Camas, WA, USA) in a 24-well plate for immunostaining or 50,000 cells per well of an 8 well chamber slide (Ibidi, Grafelfing, Germany) for calcium measurements. Plating media [Neurobasal A (Gibco, Grand Island, NY, USA), 1% FBS (Fisher Scientific), 2% B-27 (Gibco, Grand Island, NY, USA), 0.5 mM GlutaMAX (Gibco, Grand Island, NY, USA), and 1x Penicillin/Streptomycin (Invitrogen, Waltham, MA, USA)] was exchanged 1 h after plating to maintenance media (Neurobasal A, 2% B-27, 0.5 mM GlutaMAX, and 1x Penicillin/Streptomycin). Half of the volume of media was exchanged for fresh media every 3–4 days. On day in vitro (DIV) 3 Cytosine arabinoside hydrochloride (Sigma) was added to media with a final concentration of 0.1 μM to decrease glial cell proliferation.
Hippocampal neurons were grown until DIV 7. Fluo-4 NW Calcium Assay kit (Thermo Fisher) was used according to the manufacturer’s protocol. Briefly, drugs were prepared at 4 μM stock solutions in the assay buffer provided without probenecid. […] Fluorescence was imaged with a 10x objective on an (Olympus, Shinjuku City, Tokyo, Japan) IX73 microscope (Fluo-4 em. 506 nm).
Live imaging settings of Fluo-4 were as follows, 79 ms exposure, 2 s intervals for 90 cycles (180 s). […] First regions of interest (ROI) were automatically determined using the analyze particles plug in. […] Relative fluorescence is defined as F/F0 where F corresponds to the cell fluorescence and F0 to the basal fluorescence.

[3] = target: T1, NTSR1-Venus (Mus musculus, UniProt O88319); assay: Multiphoton imaging of NTSR1-Venus internalization in acute SN/VTA brain slices; type: cell-based; details: 1 μM during slice recovery and imaging, 60 min
T1 construct: monitoring endogenous NTSR1-Venus receptor endocytosis could differentiate NTSR1 agonists; endogenous in cells; host or cells: primary hippocampal neurons from homozygous NTSR1-Venus knock-in mice (C57BL/6N background)
T1 sequence (O88319 whole entry): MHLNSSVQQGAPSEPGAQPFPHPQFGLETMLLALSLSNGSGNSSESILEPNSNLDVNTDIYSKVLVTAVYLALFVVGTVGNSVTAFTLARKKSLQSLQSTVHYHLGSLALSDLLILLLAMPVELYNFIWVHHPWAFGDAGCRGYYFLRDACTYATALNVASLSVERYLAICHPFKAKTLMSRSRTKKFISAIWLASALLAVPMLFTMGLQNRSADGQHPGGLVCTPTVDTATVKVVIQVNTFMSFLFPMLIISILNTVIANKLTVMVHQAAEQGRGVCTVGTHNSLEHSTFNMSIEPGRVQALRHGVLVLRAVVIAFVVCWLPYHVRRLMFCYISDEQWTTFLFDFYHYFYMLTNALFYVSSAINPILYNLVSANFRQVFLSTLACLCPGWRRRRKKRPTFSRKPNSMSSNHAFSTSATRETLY
Experimental: Male and female Ntsr1^Venus/Venus mice aged 5 weeks were anesthetized, and 250 μm-thick coronal slices containing substantia nigra pars compacta and ventral tegmental area were prepared. Cutting solution contained (in mM): 87 NaCl, 25 NaHCO3, 25 glucose, 75 sucrose, 2.5 KCl, 1.25 NaH2PO4, 0.5 CaCl2, and 7 MgCl2; bubbled with 5% CO2/95%O2; 4°C. Following cutting, slices were incubated in the same solution for 30 min at 33°C. For control experiments, slices were subsequently incubated in the same solution at room temperature until imaging. For antagonist experiments, slices were subsequently incubated in cutting solution with 1 μM SR48962 until imaging. SR48962 was prepared as a 1 mM stock in water.
Imaging solution referred to as aCSF contained (in mM): 125 NaCl, 2.5 KCl, 2 CaCl2, 1 MgCl2, 25 NaHCO3, 1.25 NaH2PO4, 25 glucose; bubbled with 5% CO2/95% O2; 31–34°C, ∼310 mOsm. For antagonist-only experiments, 1 μM SR48962 was added to the imaging solution. For antagonist plus agonist experiments, a baseline image was taken with no NTSR1 agonist or antagonist in the imaging solution, and subsequently, 10 μM PD149163 [prepared from a stock solution in water] was added to the imaging solution. As a precautionary measure, all components that were exposed to antagonist were rinsed first with 70% ethanol and then water. All components that were exposed to agonist were replaced between experiments.
For two-photon laser scanning microscopy (2PLSM), a 2-photon source (Coherent Ultra II, Santa Clara, CA, USA) was tuned to 920 nm for imaging. […] Both epi and transfluorescence were detected with R9110 photomultiplier tubes (Hamamatsu, Shizuoka, Japan). Laser power measured at the focal plane under the objective was between 8 and 34 mW. […]
To test whether NTSR1 receptors are indeed being bound by endogenous ligand in acute slice, we compared NTSR1 distribution in slices treated with the NTSR1 specific antagonist, SR48692 ([Gully et al., 1993]). […] NTSR1-Venus puncta were then quantified in the acquired image projections by counting vesicle-sized particles (Figure 5E). […]

[4] = target: NTSR1-RlucII (mouse) (UniProt O88319)
NTSR1-RlucII (mouse), sequence (O88319 whole entry): as above

[5] = target: NTSR1-Venus (transfected construct) (mouse) (UniProt O88319)
NTSR1-Venus (transfected construct) (mouse), sequence (O88319 whole entry): as above

[6] = target: mouse NTSR1 (untagged) (mouse) (UniProt O88319)
mouse NTSR1 (untagged) (mouse), sequence (O88319 whole entry): as above

[7] = target: NTSR1-RlucII (mouse) (UniProt O88319); remark: listed apart in the source
[8] = target: NTSR1-Venus (knock-in receptor of Ntsr1 Venus/Venus mice) (mouse) (UniProt O88319)
NTSR1-Venus (knock-in receptor of Ntsr1 Venus/Venus mice) (mouse), sequence (O88319 whole entry): as above

Molecule: C[C@H](CCC(=O)O)C[C@H](C)C[C@H](C)C(=O)/C=C(\O)[C@H](C)C[C@H](C)C/C=C/[C@@H](C)[C@@H](O)[C@@H](C)[C@@H](O)C[C@@H]1CC[C@@](C)([C@H]2CC[C@@](C)([C@@H](C)O)O2)O1 [Ionomycin, Ionomycin calcium salt from Streptomyces conglobatus]
- calcium increase [1]: 3 fold
- calcium increase [2]: 3 fold

Molecule: COc1cccc(OC)c1-c1cc(C(=O)NC2(C(=O)O)C3CC4CC(C3)CC2C4)nn1-c1ccnc2cc(Cl)ccc12 (stereo not drawn) [SR48692]
- NTSR1-Venus puncta across imaging time [3]: trend of decreasing puncta across imaging time

Molecule: Neurotensin (from UniProt P30990 151-163) (peptide)
- NTSR1-RlucII internalization in HEK293 cells (decrease in ebBRET between NTSR1-RlucII and rGFP-CAAX), concentration-response; potency LogEC50 [4]: -8.07 LogEC50 (M)
- Gq activation in HEK293 cells (ebBRET between p63RhoGEF-RlucII and rGFP-CAAX, EMTA), concentration-response; potency LogEC50 [5]: -8.78 LogEC50 (M)
- Gq activation in HEK293 cells (ebBRET between p63RhoGEF-RlucII and rGFP-CAAX, EMTA), concentration-response; potency LogEC50 [6]: -8.97 LogEC50 (M)
- NTSR1-RlucII internalization in HEK293 cells (decrease in ebBRET between NTSR1-RlucII and rGFP-CAAX), concentration-response; potency as told in the text [7]: 5.89 nM
- NTSR1-Venus endocytosis in primary hippocampal neurons (ratio of Venus and EEA1 positive to total EEA1 positive endosomes), dose-response after 5 min of agonist; EC50 [8]: 4.03 nM
- NTSR1-Venus redistribution to EEA1 endosomes in primary hippocampal neurons, 1 uM neurotensin, time course 0-60 min; % EEA1 vesicles with Venus (value at 5 min) [8]: 98.5%
